Results published in the RNAGym collection of RNA variant scans (doi:10.1021/acssynbio.7b00057).

B1: Pistol ribozyme (parent)
chain: GGGUCGUUGUUCCAUAAUCGCGUGGAUAUGGCACGCAAGUUUCUACCGGGCACCGUAAAUGUCCGACUGGAGCCGUUCGGGCGGCUAUAAACAGACCUCAGGCCCGAAGCGUGGCGGCACCUGCCGCCGGUGGUAAAAAAGAUCGGAAGAGCACACGUCU

Variants of: B1
Test: aptazyme ON/OFF ratio, guanine; higher = stronger switching; co-transcriptional cleavage with and without guanine

| Variant | aptazyme ON/OFF ratio |
| --- | --- |
| GGGUCGGUUCACCAUAAUCGCGUGGAUAUGGCACGCAAGUUUCUACCGGGCACCGUAAAUGUCCGACUGGAGCCGUUCGGGCGGCUAUAAACAGACCUCAGGCCCGAAGCGUGGCGGCACCUGCCGCCGGUGGUAAAAAAGAUCGGAAGAGCACACGUCU [U7G G9U U10C U11A] | 3.43 |
| GGGUCGGUUCACAAUAAUCGCGUGGAUAUGGCACGCAAGUUUCUACCGGGCACCGUAAAUGUCCGACUGGAGCCGUUCGGGCGGCUAUAAACAGACCUCAGGCCCGAAGCGUGGCGGCACCUGCCGCCGGUGGUAAAAAAGAUCGGAAGAGCACACGUCU [U7G G9U U10C U11A C13A] | 1.34 |
| GGGUCGGUUCACGAUAAUCGCGUGGAUAUGGCACGCAAGUUUCUACCGGGCACCGUAAAUGUCCGACUGGAGCCGUUCGGGCGGCUAUAAACAGACCUCAGGCCCGAAGCGUGGCGGCACCUGCCGCCGGUGGUAAAAAAGAUCGGAAGAGCACACGUCU [U7G G9U U10C U11A C13G] | 1.16 |
| GGGUCGGUUCAACAUAAUCGCGUGGAUAUGGCACGCAAGUUUCUACCGGGCACCGUAAAUGUCCGACUGGAGCCGUUCGGGCGGCUAUAAACAGACCUCAGGCCCGAAGCGUGGCGGCACCUGCCGCCGGUGGUAAAAAAGAUCGGAAGAGCACACGUCU [U7G G9U U10C U11A C12A] | 1.58 |
| GGGUCGGUUCAUCAUAAUCGCGUGGAUAUGGCACGCAAGUUUCUACCGGGCACCGUAAAUGUCCGACUGGAGCCGUUCGGGCGGCUAUAAACAGACCUCAGGCCCGAAGCGUGGCGGCACCUGCCGCCGGUGGUAAAAAAGAUCGGAAGAGCACACGUCU [U7G G9U U10C U11A C12U] | 1.8 |
| GGGUCGGUUCAGCAUAAUCGCGUGGAUAUGGCACGCAAGUUUCUACCGGGCACCGUAAAUGUCCGACUGGAGCCGUUCGGGCGGCUAUAAACAGACCUCAGGCCCGAAGCGUGGCGGCACCUGCCGCCGGUGGUAAAAAAGAUCGGAAGAGCACACGUCU [U7G G9U U10C U11A C12G] | 1.57 |
| GGGUCGGUUCAUAAUAAUCGCGUGGAUAUGGCACGCAAGUUUCUACCGGGCACCGUAAAUGUCCGACUGGAGCCGUUCGGGCGGCUAUAAACAGACCUCAGGCCCGAAGCGUGGCGGCACCUGCCGCCGGUGGUAAAAAAGAUCGGAAGAGCACACGUCU [U7G G9U U10C U11A C12U C13A] | 1.33 |
| GGGUCGGUUCAUGAUAAUCGCGUGGAUAUGGCACGCAAGUUUCUACCGGGCACCGUAAAUGUCCGACUGGAGCCGUUCGGGCGGCUAUAAACAGACCUCAGGCCCGAAGCGUGGCGGCACCUGCCGCCGGUGGUAAAAAAGAUCGGAAGAGCACACGUCU [U7G G9U U10C U11A C12U C13G] | 1.23 |
| GGGUCGGUUCAUUAUAAUCGCGUGGAUAUGGCACGCAAGUUUCUACCGGGCACCGUAAAUGUCCGACUGGAGCCGUUCGGGCGGCUAUAAACAGACCUCAGGCCCGAAGCGUGGCGGCACCUGCCGCCGGUGGUAAAAAAGAUCGGAAGAGCACACGUCU [U7G G9U U10C U11A C12U C13U] | 1.33 |
| GGGUCGGUUCAAAAUAAUCGCGUGGAUAUGGCACGCAAGUUUCUACCGGGCACCGUAAAUGUCCGACUGGAGCCGUUCGGGCGGCUAUAAACAGACCUCAGGCCCGAAGCGUGGCGGCACCUGCCGCCGGUGGUAAAAAAGAUCGGAAGAGCACACGUCU [U7G G9U U10C U11A C12A C13A] | 1.22 |
| GGGUCGGUUCAAGAUAAUCGCGUGGAUAUGGCACGCAAGUUUCUACCGGGCACCGUAAAUGUCCGACUGGAGCCGUUCGGGCGGCUAUAAACAGACCUCAGGCCCGAAGCGUGGCGGCACCUGCCGCCGGUGGUAAAAAAGAUCGGAAGAGCACACGUCU [U7G G9U U10C U11A C12A C13G] | 1.16 |
| GGGUCGGUUCAAUAUAAUCGCGUGGAUAUGGCACGCAAGUUUCUACCGGGCACCGUAAAUGUCCGACUGGAGCCGUUCGGGCGGCUAUAAACAGACCUCAGGCCCGAAGCGUGGCGGCACCUGCCGCCGGUGGUAAAAAAGAUCGGAAGAGCACACGUCU [U7G G9U U10C U11A C12A C13U] | 1.36 |
| GGGUCGGUUCUCAAUAAUCGCGUGGAUAUGGCACGCAAGUUUCUACCGGGCACCGUAAAUGUCCGACUGGAGCCGUUCGGGCGGCUAUAAACAGACCUCAGGCCCGAAGCGUGGCGGCACCUGCCGCCGGUGGUAAAAAAGAUCGGAAGAGCACACGUCU [U7G G9U U10C C13A] | 1.37 |
| GGGUCGGUUCUCGAUAAUCGCGUGGAUAUGGCACGCAAGUUUCUACCGGGCACCGUAAAUGUCCGACUGGAGCCGUUCGGGCGGCUAUAAACAGACCUCAGGCCCGAAGCGUGGCGGCACCUGCCGCCGGUGGUAAAAAAGAUCGGAAGAGCACACGUCU [U7G G9U U10C C13G] | 1.1 |
| GGGUCGGUUCUCUAUAAUCGCGUGGAUAUGGCACGCAAGUUUCUACCGGGCACCGUAAAUGUCCGACUGGAGCCGUUCGGGCGGCUAUAAACAGACCUCAGGCCCGAAGCGUGGCGGCACCUGCCGCCGGUGGUAAAAAAGAUCGGAAGAGCACACGUCU [U7G G9U U10C C13U] | 1.66 |
| GGGUCGGUUCAGAAUAAUCGCGUGGAUAUGGCACGCAAGUUUCUACCGGGCACCGUAAAUGUCCGACUGGAGCCGUUCGGGCGGCUAUAAACAGACCUCAGGCCCGAAGCGUGGCGGCACCUGCCGCCGGUGGUAAAAAAGAUCGGAAGAGCACACGUCU [U7G G9U U10C U11A C12G C13A] | 1.13 |
| GGGUCGGUUCAGUAUAAUCGCGUGGAUAUGGCACGCAAGUUUCUACCGGGCACCGUAAAUGUCCGACUGGAGCCGUUCGGGCGGCUAUAAACAGACCUCAGGCCCGAAGCGUGGCGGCACCUGCCGCCGGUGGUAAAAAAGAUCGGAAGAGCACACGUCU [U7G G9U U10C U11A C12G C13U] | 1.26 |
| GGGUCGGUUCAGGAUAAUCGCGUGGAUAUGGCACGCAAGUUUCUACCGGGCACCGUAAAUGUCCGACUGGAGCCGUUCGGGCGGCUAUAAACAGACCUCAGGCCCGAAGCGUGGCGGCACCUGCCGCCGGUGGUAAAAAAGAUCGGAAGAGCACACGUCU [U7G G9U U10C U11A C12G C13G] | 1.13 |
